Reference: paper PMC2119884
“And” between values parts separate entries of the source, which are not always exact repeats. Equal entries are not always repeated. Where two headings read alike, the source gives them in different places.

Key:
[1] = molecular target: L266D mutant yeast actin (S. cerevisiae) (UniProt P60010); assay: light scattering
[2] = molecular target: L266D mutant yeast actin (S. cerevisiae) (UniProt P60010); assay: light scattering; remark: listed apart in the source
[3] = molecular target: L266D mutant yeast actin (S. cerevisiae) (UniProt P60010); assay: sedimentation of F-actin
[4] = molecular target: L266D mutant yeast actin (S. cerevisiae) (UniProt P60010); assay: sedimentation of F-actin; remark: listed apart in the source
[5] = molecular target: L266D mutant yeast actin (S. cerevisiae) (UniProt P60010); assay: light scattering; remark: listed apart in the source
[6] = molecular target: L266D mutant yeast actin (S. cerevisiae) (UniProt P60010); assay: light scattering; remark: listed apart in the source
[7] = molecular target: L266D mutant yeast actin (S. cerevisiae) (UniProt P60010); assay: sedimentation of F-actin; remark: listed apart in the source

critical concentration (Cc) for polymerization [1]: 1.2 µM | elongation rate, times slower than wild-type actin [1]: 2 times and 3 times | critical concentration (Cc) for polymerization [2]: 11 µM | actin remaining in the supernate (starting concentration 70 µM) [3]: 46.5 µM | actin remaining in the supernate (starting concentration 70 µM) [4]: 11.6 µM | critical concentration (Cc) for polymerization [5]: 6.5 µM | elongation rate, times slower than wild-type actin [6]: 2 times and 3 times | actin remaining in the supernate (starting concentration 70 µM) [7]: 4.6 µM
Substance: L266D mutant yeast actin (from UniProt P60010 1-375) (natural protein)
